Usually IC50 stands for the point on the concentration scale where inhibition reaches its midpoint. Low readings indicate higher potency, high ones lower potency. For orientation: Ki means the dissociation constant of the complex between target and ligand, obtained from inhibition or displacement. A lower Ki goes with higher affinity.

“And” between values parts separate entries of the source, which are not always exact repeats. Equal entries are not always repeated.

This note sets out measurements from patent publication US20200369728A1, “PEPTIDOMIMETIC MACROCYCLES AND USES THEREOF” (Aileron Therapeutics, Inc., priority 2015, published 2020).

Experiment [1] addresses MDM2 (In-house, 41 kD) (UniProt Q00987). The experiment is described as follows: competitive fluorescence polarization, displacement of FAM-labeled linear peptide from MDM2; grade decoded by the scale of Table 4.
The target of experiment [2] is T1, MDMX (In-house, 40 kD) (UniProt O15151).
T1 sequence (looked up): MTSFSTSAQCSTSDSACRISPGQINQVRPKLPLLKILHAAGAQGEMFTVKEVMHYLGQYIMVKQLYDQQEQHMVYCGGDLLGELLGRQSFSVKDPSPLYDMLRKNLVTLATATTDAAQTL
The experiment can be described thus: competitive fluorescence polarization, displacement of FAM-labeled linear peptide from MDMX; grade decoded by the scale of Table 4. For orientation: In fluorescence polarisation assays a small probe gives low polarisation when free and higher when bound to something large.

Experiment [3] concerns the target T2, MDM2 (In-house, 41 kD) (UniProt Q00987 1-125, limits assumed).
T2 construct: Construct limits and any tag are unknown; also called HDM2
The experiment is described as follows: competitive fluorescence polarization, displacement of FAM-labeled linear peptide from MDM2; grade decoded by the scale of Table 4.

In experiment [4] the target is T3, MDMX (In-house, 40 kD) (UniProt O15151 1-120, limits assumed).
T3 construct: Construct limits and any tag are unknown; also called MDM4
T3 sequence (looked up): T1 sequence (looked up)
The experiment can be described thus: competitive fluorescence polarization, displacement of FAM-labeled linear peptide from MDMX; grade decoded by the scale of Table 4.

Sequence of MDM2 (In-house, 41 kD) (UniProt Q00987) (Q00987 1-125 limits assumed): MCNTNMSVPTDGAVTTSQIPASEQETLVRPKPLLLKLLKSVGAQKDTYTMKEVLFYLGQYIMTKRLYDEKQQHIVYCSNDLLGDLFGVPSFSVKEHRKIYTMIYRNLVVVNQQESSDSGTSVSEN
T2 sequence (Q00987 1-125 limits assumed): as above

Take “SP756, Ac-t$s8wyanf4CF3e$r5llr-NH2 (peptide)”: the IC50 in experiment [1] is > 10 nM and < 100 nM; in experiment [2] it was above 1000 nM.

B1: SP615, Ac-LTF$r8EpYWAQL$AAAAAa-NH2 (peptide)
peptide: LTFAEYWAQLAAAAAAA
modifications: not fully specified; N-terminal acetyl; $r8 at 4 crosslinked by all-carbon olefin staple to $ at 11; pY at 6 (abbreviation not defined in the filing); D-Ala (a) at C-terminus; C-terminal amide
Consider B1, for which the Ki in experiment [1] and in experiment [2] was below 10 nM in each case.

B2: SP686, 5-TAMRA-BaLTF$r8EYWAQCba$SAA-NH2 (peptide)
peptide: ALTFAEYWAQAASAA
modifications: not fully specified; N-terminal 5-TAMRA on beta-alanine (Ba); $r8 crosslinked by all-carbon olefin staple to $; Cba (cyclobutyl alanine); C-terminal amide
notes: TAMRA-labeled stapled peptidomimetic macrocycle
B2 had an inhibitory constant (Ki) in experiment [3] of at most 10 nM.

B3: SP602, Ac-LTF$r8GlaYWAQL$AAAAAa-NH2 (peptide)
peptide: LTFAEYWAQLAAAAAAA
modifications: not fully specified; N-terminal acetyl; $r8 at 4 crosslinked by all-carbon olefin staple to $ at 11; Gla at 5 (abbreviation not defined in the filing); D-Ala (a) at C-terminus; C-terminal amide
notes: stapled peptidomimetic macrocycle
Take B3: the Ki in experiment [3] and in experiment [4] was at most 10 nM each time.

B4: SP611, Ac-LTF$r8EYWANL$AAAAAa-NH2 (peptide)
peptide: LTFAEYWANLAAAAAAA
modifications: not fully specified; N-terminal acetyl; $r8 at 4 crosslinked by all-carbon olefin staple to $ at 11; D-Ala (a) at C-terminus; C-terminal amide
notes: as for B3
As for B4, the inhibition constant (Ki) in experiment [3] was at most 10 nM.

B5: SP610, Ac-LTF$r8EYWASL$AAAAAa-NH2 (peptide)
peptide: LTFAEYWASLAAAAAAA
modifications: not fully specified; N-terminal acetyl; $r8 at 4 crosslinked by all-carbon olefin staple to $ at 11; D-Ala (a) at C-terminus; C-terminal amide
notes: as for B3
As to B5, the Ki in experiment [3] is at most 10 nM.

B6: SP608, Ac-LTF$r8EYWALL$AAAAAa-NH2 (peptide)
peptide: LTFAEYWALLAAAAAAA
modifications: not fully specified; N-terminal acetyl; $r8 at 4 crosslinked by all-carbon olefin staple to $ at 11; D-Ala (a) at C-terminus; C-terminal amide
notes: as for B3
On to B6, for which the inhibitory constant (Ki) in experiment [3] is at most 10 nM.

B7: SP613, Ac-LTF$r8EYWAHL$AAAAAa-NH2 (peptide)
peptide: LTFAEYWAHLAAAAAAA
modifications: not fully specified; N-terminal acetyl; $r8 at 4 crosslinked by all-carbon olefin staple to $ at 11; D-Ala (a) at C-terminus; C-terminal amide
notes: as for B3
In the case of B7, the Ki in experiment [3] is at most 10 nM.

B8: SP600, Ac-LTF$r8QYWAQL$AAAAAa-NH2 (peptide)
peptide: LTFAQYWAQLAAAAAAA
modifications: not fully specified; N-terminal acetyl; $r8 (alpha-Me R8-octenyl-alanine) at 4 crosslinked by all-carbon olefin staple to $ (alpha-Me S5-pentenyl-alanine) at 11; D-Ala (a) at C-terminus; C-terminal amide
notes: as for B3
Take B8: the Ki in experiment [3] and in experiment [4] was at most 10 nM in each case.

B9: SP612, Ac-LTF$r8EYWACitL$AAAAAa-NH2 (peptide)
peptide: LTFAEYWAXLAAAAAAA
modifications: not fully specified; N-terminal acetyl; $r8 at 4 crosslinked by all-carbon olefin staple to $ at 11; Cit (citrulline) at 9; D-Ala (a) at C-terminus; C-terminal amide
notes: as for B3
For B9, the Ki in experiment [3] was at most 10 nM.

B10: SP433, Ac-LTF$r8EYWCou7QCba$SAA-NH2 (peptide)
peptide: LTFAEYWXQAASAA
modifications: not fully specified; N-terminal acetyl; $r8 at 4 crosslinked by all-carbon olefin staple to $ at 11; Cou7 at 8 (structure shown only as a drawing); Cba (cyclobutyl alanine) at 10; C-terminal amide
notes: as for B3
In turn, B10 came in with an inhibition constant (Ki) in experiment [3] of at most 10 nM.

B11: SP595, Ac-LTF$r8EYWAQCba$S-NH2 (peptide)
peptide: LTFAEYWAQAAS
modifications: not fully specified; N-terminal acetyl; $r8 at 4 crosslinked by all-carbon olefin staple to $ at 11; Cba (cyclobutyl alanine) at 10; C-terminal amide
notes: as for B3
As to B11, in experiment [3], the inhibition constant (Ki) is above 1000 nM.

B12: SP609, Ac-LTF$r8EYWAAibL$AAAAAa-NH2 (peptide)
peptide: LTFAEYWAXLAAAAAAA
modifications: not fully specified; N-terminal acetyl; $r8 at 4 crosslinked by all-carbon olefin staple to $ at 11; Aib (2-aminoisobutyric acid) at 9; D-Ala (a) at C-terminus; C-terminal amide
notes: as for B3
On to B12, for which the inhibition constant (Ki) in experiment [3] is at most 10 nM.
